The target of this test is T1, proteinase 3 and neutrophil elastase (PR1) peptide on HLA-A*02:01 (human).
T1 peptide: VLQELNVTV
The experiment in a line: multimer staining. As to the method: Briefly, from PBMC that were derived from a healthy HLA-A2+ donor, the inventor elicited bulk PR1-CTL cell lines after 4 to 6 weeks of weekly stimulations with the PR1 peptide+low dose IL-2 and IL-7 in vitro, as outlined in FIG. 1. These CTL were subsequently placed into limiting dilution culture and after an additional 14 to 20 days. The cells were expanded with anti-CD3/anti-CD28 beads+IL-2+feeder cells+IL-15 to sufficient numbers and were then tested. The PR1-CTLs were stained with PR1-CTL tetramer to confirm specificity (FIG. 2). Unique cDNA sequences from the CDR3-α and CDR3-β regions from two different PR1-specific CTL clones that were derived from an HLA-A2+ healthy individual were obtained. The inventor reported that one PR1-CTL clone (F4) bears a relatively high avidity TCR for the PR1/HLA-A2 ligand, while the other CTL clone (B12) bears a relatively low avidity TCR. These conclusions are supported with PR1/HLA-A2 tetramer binding data and with cytotoxicity assays that show F4 to have a higher tetramer staining fluorescence intensity and a lower threshold of activation than the B12 clone, respectively. TCR-αβ CDR3 nucleic acid sequence data is provided showing clonality at the molecular level.

B1: High avidity PR1-CTL clone F4 TCR (TCR, V domains shown)
Valpha: GQNIDQPTEMTATEGAIVQINCTYQTSGFNGLFWYQQHAGEAPTFLSYNVLDGLEEKGRFSSFLSRSKGYSYLLLKELQMKDSASYLCAVSRDSGNTPLVFGKGTRLSVIA
Vbeta: DSGVTQTPKHLITATGQRVTLRCSPRSGDLSVYWYQQSLDQGLQFLIQYYNGEERAKGNILERFSAQQFPDLHSELNLSSLELGDSALYFCASSPSGTGNIQYFGAGTRLSVL
Regarding B1, the binding result is on record as “recognises”.

B2: Low avidity PR1-CTL clone B12 TCR (TCR, V domains shown)
Valpha: AQSVTQPDIHITVSEGASLELRCNYSYGATPYLFWYVQSPGQGLQLLLKYFSGDTLVQGIKGFEAEFKRSQSSFNLRKPSVHWSDAAEYFCAVGGGARLMFGDGTQLVVKP
Vbeta: KAGVTQTPRYLIKTRGQQVTLSCSPISGHRSVSWYQQTPGQGLQFLSEYFSETQRNKGNFPGRFSGRQFSNPRSEMNVSTLELGDSALYLCASSGEAFYEQYFGPGTRLTVT
Take B2: the binding result was “recognises”.
